This note sets out measurements from the supplement of paper PMC9112550, “Optimization of the antimicrobial peptide Bac7 by deep mutational scanning” (BMC Biology, 2022).
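Also: peptides expressed intracellularly from a pBAD plasmid library in pooled LB shake-flask culture, induced with 0.3% L-arabinose, DNA abundance read by NGS, three biological replicates, DESeq2 with apeglm shrinkage.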

In this data set the test system is Escherichia coli TOP10. Description: shrunken log2 fold change of peptide-encoding DNA abundance (4.5 h post-induction vs induction); higher = less antimicrobial activity (less host growth inhibition). The settings on record: time post-induction: 4.5 h; library: site-saturation at positions 5, 18, 19, 20.
Turning to RRIRNRPPRLPRPRPRPVQMPRP, the “shrunken log2 fold change” value stood at 0.0259.

As for RRIRGRPPRLPRPRPRPRPKPRP, the “shrunken log2 fold change” value worked out at 1.41.

Consider RRIRHRPPRLPRPRPRPGIYPRP, for which the “shrunken log2 fold change” value was determined as 0.0151.

Consider RRIRPRPPRLPRPRPRPKTEPRP, for which the “shrunken log2 fold change” value was -0.217.

For the sequence RRIRVRPPRLPRPRPRPTDAPRP, the “shrunken log2 fold change” value stood at 0.0111.

As to RRIRYRPPRLPRPRPRPPARPRP, the “shrunken log2 fold change” value amounted to 0.119.

With RRIRQRPPRLPRPRPRPWGGPRP, the “shrunken log2 fold change” value turned out to be 0.102.

As for RRIRLRPPRLPRPRPRPPHDPRP, the “shrunken log2 fold change” value worked out at 0.397.

Regarding RRIRLRPPRLPRPRPRPGFLPRP, the “shrunken log2 fold change” value was determined as 0.0856.

On to RRIRTRPPRLPRPRPRPCQAPRP, for which the “shrunken log2 fold change” value is -0.0455.

For RRIRSRPPRLPRPRPRPAKDPRP, the “shrunken log2 fold change” value came out at 0.135.

RRIRFRPPRLPRPRPRPMSGPRP: the “shrunken log2 fold change” value is -0.0751.

For RRIRVRPPRLPRPRPRPQTGPRP, the “shrunken log2 fold change” value was -0.0393.

As to RRIRPRPPRLPRPRPRPRYQPRP, the “shrunken log2 fold change” value stood at 0.0923.

For RRIRMRPPRLPRPRPRPPFHPRP, the “shrunken log2 fold change” value turned out to be 0.0707.

In the case of RRIRYRPPRLPRPRPRPAQEPRP, the “shrunken log2 fold change” value is 0.075.

In the case of RRIRSRPPRLPRPRPRPFTPPRP, the “shrunken log2 fold change” value is -0.0114.

On to RRIRHRPPRLPRPRPRPPYAPRP, for which the “shrunken log2 fold change” value is -0.00375.

In the case of RRIRFRPPRLPRPRPRPCTFPRP, the “shrunken log2 fold change” value was -0.0554.

RRIRLRPPRLPRPRPRPFYEPRP: the “shrunken log2 fold change” value was -0.426.

Consider RRIRQRPPRLPRPRPRPREMPRP, for which the “shrunken log2 fold change” value amounted to 0.0554.

RRIRMRPPRLPRPRPRPNGLPRP: the “shrunken log2 fold change” value turned out to be 0.062.

Take RRIRWRPPRLPRPRPRPFWCPRP: the “shrunken log2 fold change” value worked out at 0.193.

As for RRIRSRPPRLPRPRPRPKLKPRP, the “shrunken log2 fold change” value was determined as 0.149.

Regarding RRIRYRPPRLPRPRPRPTKHPRP, the “shrunken log2 fold change” value is -0.896.

As for RRIRMRPPRLPRPRPRPVEAPRP, the “shrunken log2 fold change” value is 0.396.

In the case of RRIRDRPPRLPRPRPRPPEYPRP, the “shrunken log2 fold change” value was -0.0893.

For RRIRTRPPRLPRPRPRPAPTPRP, the “shrunken log2 fold change” value is 0.0808.

Consider RRIRQRPPRLPRPRPRPNVRPRP, for which the “shrunken log2 fold change” value was 0.0221.

On to RRIRSRPPRLPRPRPRPECEPRP, for which the “shrunken log2 fold change” value is -0.0828.

In the case of RRIRERPPRLPRPRPRPFDSPRP, the “shrunken log2 fold change” value was -1.81.

For RRIRSRPPRLPRPRPRPHPAPRP, the “shrunken log2 fold change” value is -0.177.

RRIRCRPPRLPRPRPRPDAGPRP: the “shrunken log2 fold change” value is 0.122.

With RRIRFRPPRLPRPRPRPCVMPRP, the “shrunken log2 fold change” value is -0.143.

RRIRWRPPRLPRPRPRPAVNPRP: the “shrunken log2 fold change” value is 0.185.

In the case of RRIRHRPPRLPRPRPRPMGMPRP, the “shrunken log2 fold change” value is -0.254.

Regarding RRIRVRPPRLPRPRPRPYKLPRP, the “shrunken log2 fold change” value was -0.745.

Consider RRIRVRPPRLPRPRPRPCYLPRP, for which the “shrunken log2 fold change” value is -0.56.

Turning to RRIRWRPPRLPRPRPRPRNEPRP, the “shrunken log2 fold change” value is 1.32.

On to RRIRQRPPRLPRPRPRPSIAPRP, for which the “shrunken log2 fold change” value is -0.00998.

On to RRIRRRPPRLPRPRPRPQRWPRP, for which the “shrunken log2 fold change” value was -0.0703.

Regarding RRIRLRPPRLPRPRPRPVKRPRP, the “shrunken log2 fold change” value worked out at 0.0647.

With RRIRFRPPRLPRPRPRPQPGPRP, the “shrunken log2 fold change” value was found to be 0.152.

In the case of RRIRARPPRLPRPRPRPLMLPRP, the “shrunken log2 fold change” value was found to be 0.32.

For the sequence RRIRVRPPRLPRPRPRPGFAPRP, the “shrunken log2 fold change” value was 0.299.

For the sequence RRIRVRPPRLPRPRPRPVWYPRP, the “shrunken log2 fold change” value was -0.154.

With RRIRRRPPRLPRPRPRPFEEPRP, the “shrunken log2 fold change” value came to 0.251.

Take RRIRMRPPRLPRPRPRPHVWPRP: the “shrunken log2 fold change” value is 0.281.

On to RRIRGRPPRLPRPRPRPKENPRP, for which the “shrunken log2 fold change” value came out at 0.791.

As for RRIRERPPRLPRPRPRPMLQPRP, the “shrunken log2 fold change” value was -0.161.

In the case of RRIRRRPPRLPRPRPRPVCLPRP, the “shrunken log2 fold change” value turned out to be 0.149.

In the case of RRIRSRPPRLPRPRPRPKMVPRP, the “shrunken log2 fold change” value is -0.309.

RRIRERPPRLPRPRPRPYNAPRP: the “shrunken log2 fold change” value was -1.26.

As to RRIRQRPPRLPRPRPRPKKKPRP, the “shrunken log2 fold change” value was -0.0791.

For RRIRWRPPRLPRPRPRPFKNPRP, the “shrunken log2 fold change” value was -0.274.

For the sequence RRIRERPPRLPRPRPRPRVMPRP, the “shrunken log2 fold change” value was -0.244.

RRIRDRPPRLPRPRPRPVGYPRP: the “shrunken log2 fold change” value amounted to 0.0934.

With RRIRLRPPRLPRPRPRPQTCPRP, the “shrunken log2 fold change” value is -0.28.

RRIRNRPPRLPRPRPRPSAYPRP: the “shrunken log2 fold change” value was -0.42.

Consider RRIRWRPPRLPRPRPRPGNQPRP, for which the “shrunken log2 fold change” value is -0.225.

RRIRMRPPRLPRPRPRPGLFPRP: the “shrunken log2 fold change” value is 0.236.

As for RRIRTRPPRLPRPRPRPKDQPRP, the “shrunken log2 fold change” value was -0.0284.

On to RRIRCRPPRLPRPRPRPMVRPRP, for which the “shrunken log2 fold change” value turned out to be 0.158.

Regarding RRIRMRPPRLPRPRPRPYICPRP, the “shrunken log2 fold change” value is -0.201.

On to RRIRMRPPRLPRPRPRPNLWPRP, for which the “shrunken log2 fold change” value was 0.119.

Take RRIRIRPPRLPRPRPRPFGRPRP: the “shrunken log2 fold change” value is -0.0138.

RRIRQRPPRLPRPRPRPMITPRP: the “shrunken log2 fold change” value was -0.166.

For the sequence RRIRLRPPRLPRPRPRPIMGPRP, the “shrunken log2 fold change” value is -0.0219.

For the sequence RRIRLRPPRLPRPRPRPFLSPRP, the “shrunken log2 fold change” value was -0.643.

RRIRTRPPRLPRPRPRPKGMPRP: the “shrunken log2 fold change” value stood at 0.138.

Regarding RRIRERPPRLPRPRPRPNDCPRP, the “shrunken log2 fold change” value is -0.0231.

In the case of RRIRVRPPRLPRPRPRPISQPRP, the “shrunken log2 fold change” value was -0.261.

RRIRIRPPRLPRPRPRPPRIPRP: the “shrunken log2 fold change” value was found to be 0.333.

For RRIRGRPPRLPRPRPRPQPRPRP, the “shrunken log2 fold change” value was 0.9.

Take RRIRMRPPRLPRPRPRPSDQPRP: the “shrunken log2 fold change” value was -0.198.

Take RRIRLRPPRLPRPRPRPGMYPRP: the “shrunken log2 fold change” value is -0.115.

Turning to RRIRFRPPRLPRPRPRPVNEPRP, the “shrunken log2 fold change” value is -0.288.

Take RRIRIRPPRLPRPRPRPHRPPRP: the “shrunken log2 fold change” value was -0.166.

Regarding RRIRMRPPRLPRPRPRPREKPRP, the “shrunken log2 fold change” value came out at 1.19.

In the case of RRIRFRPPRLPRPRPRPNDHPRP, the “shrunken log2 fold change” value was -0.512.

For RRIRIRPPRLPRPRPRPSWGPRP, the “shrunken log2 fold change” value was -0.0874.

For the sequence RRIRRRPPRLPRPRPRPQWPPRP, the “shrunken log2 fold change” value came out at 0.00418.

Regarding RRIRIRPPRLPRPRPRPYRHPRP, the “shrunken log2 fold change” value was -0.0614.

Consider RRIRSRPPRLPRPRPRPNGRPRP, for which the “shrunken log2 fold change” value was -0.0415.

As for RRIRERPPRLPRPRPRPNSEPRP, the “shrunken log2 fold change” value is -0.391.

RRIRSRPPRLPRPRPRPTYKPRP: the “shrunken log2 fold change” value is -0.495.

On to RRIRVRPPRLPRPRPRPEEVPRP, for which the “shrunken log2 fold change” value was determined as 0.0207.

Turning to RRIRARPPRLPRPRPRPSKCPRP, the “shrunken log2 fold change” value is -0.0295.

Turning to RRIRSRPPRLPRPRPRPVCDPRP, the “shrunken log2 fold change” value turned out to be 0.327.

As to RRIRIRPPRLPRPRPRPMENPRP, the “shrunken log2 fold change” value was 0.0119.

Take RRIRQRPPRLPRPRPRPDLWPRP: the “shrunken log2 fold change” value amounted to 0.514.

In the case of RRIRIRPPRLPRPRPRPTKCPRP, the “shrunken log2 fold change” value was -0.696.

For RRIRFRPPRLPRPRPRPIIAPRP, the “shrunken log2 fold change” value is -0.413.

For RRIRYRPPRLPRPRPRPAIYPRP, the “shrunken log2 fold change” value was -0.121.

For RRIRIRPPRLPRPRPRPMTNPRP, the “shrunken log2 fold change” value was -0.108.

On to RRIRNRPPRLPRPRPRPEGMPRP, for which the “shrunken log2 fold change” value was found to be 0.225.

With RRIRPRPPRLPRPRPRPVPLPRP, the “shrunken log2 fold change” value amounted to 0.0768.

As to RRIRERPPRLPRPRPRPMKMPRP, the “shrunken log2 fold change” value was found to be 0.0259.

Turning to RRIRLRPPRLPRPRPRPQEVPRP, the “shrunken log2 fold change” value is 0.0641.

On to RRIRCRPPRLPRPRPRPNMSPRP, for which the “shrunken log2 fold change” value is -0.204.

For the sequence RRIRKRPPRLPRPRPRPFSNPRP, the “shrunken log2 fold change” value was -0.411.

Consider RRIRARPPRLPRPRPRPINQPRP, for which the “shrunken log2 fold change” value is -0.195.

Consider RRIRPRPPRLPRPRPRPVVWPRP, for which the “shrunken log2 fold change” value came out at 0.535.

As for RRIRPRPPRLPRPRPRPTEMPRP, the “shrunken log2 fold change” value worked out at 0.218.

As for RRIRSRPPRLPRPRPRPGRIPRP, the “shrunken log2 fold change” value was -0.0494.

In the case of RRIRHRPPRLPRPRPRPIHFPRP, the “shrunken log2 fold change” value was -0.171.

With RRIRSRPPRLPRPRPRPKKMPRP, the “shrunken log2 fold change” value is -0.178.

Consider RRIRGRPPRLPRPRPRPDTMPRP, for which the “shrunken log2 fold change” value is 0.00209.

Take RRIRPRPPRLPRPRPRPVHIPRP: the “shrunken log2 fold change” value was -0.208.

Take RRIRERPPRLPRPRPRPGWSPRP: the “shrunken log2 fold change” value came out at 0.135.

For the sequence RRIRTRPPRLPRPRPRPDIKPRP, the “shrunken log2 fold change” value is -0.197.

In the case of RRIRFRPPRLPRPRPRPMEMPRP, the “shrunken log2 fold change” value was -0.0294.

In the case of RRIRWRPPRLPRPRPRPIPKPRP, the “shrunken log2 fold change” value worked out at 0.102.

Turning to RRIRNRPPRLPRPRPRPCPFPRP, the “shrunken log2 fold change” value is -0.208.

On to RRIRVRPPRLPRPRPRPMAIPRP, for which the “shrunken log2 fold change” value is -0.11.

Take RRIRIRPPRLPRPRPRPRAGPRP: the “shrunken log2 fold change” value was 1.6.

With RRIRERPPRLPRPRPRPPYPPRP, the “shrunken log2 fold change” value is -0.32.

For RRIRKRPPRLPRPRPRPVSNPRP, the “shrunken log2 fold change” value is -0.212.

Consider RRIRHRPPRLPRPRPRPLMLPRP, for which the “shrunken log2 fold change” value was -0.0972.

For the sequence RRIRIRPPRLPRPRPRPIPPPRP, the “shrunken log2 fold change” value is 0.112.

On to RRIRERPPRLPRPRPRPPVKPRP, for which the “shrunken log2 fold change” value worked out at 0.0254.

As to RRIRERPPRLPRPRPRPTLIPRP, the “shrunken log2 fold change” value was 0.0112.

Regarding RRIRMRPPRLPRPRPRPSKQPRP, the “shrunken log2 fold change” value came to 0.495.

With RRIRSRPPRLPRPRPRPGRAPRP, the “shrunken log2 fold change” value worked out at 1.02.

On to RRIRTRPPRLPRPRPRPIYQPRP, for which the “shrunken log2 fold change” value was -0.364.
